Results taken from PMC3947954.

Columns and labels:
[1] = molecular target: HIP14L-GFP (Huntingtin Interacting Protein 14-like, GFP tagged) (human (from the printed RefSeq entries)) (UniProt Q8IUH4); test: co-IP; COS-7 cells transiently co-transfected, harvested after 24 h; lysed in 1% SDS TEEN, diluted in four volumes 1% TritonX-100 TEEN; GFP immunoprecipitated overnight (goat anti-GFP, Dynabeads Protein G); blots probed for HTT and GFP; HTT band as percent of the GFP band, normalized to 15Q HTT 1–548
UniProt Q8IUH4, sequence (Q8IUH4 whole entry): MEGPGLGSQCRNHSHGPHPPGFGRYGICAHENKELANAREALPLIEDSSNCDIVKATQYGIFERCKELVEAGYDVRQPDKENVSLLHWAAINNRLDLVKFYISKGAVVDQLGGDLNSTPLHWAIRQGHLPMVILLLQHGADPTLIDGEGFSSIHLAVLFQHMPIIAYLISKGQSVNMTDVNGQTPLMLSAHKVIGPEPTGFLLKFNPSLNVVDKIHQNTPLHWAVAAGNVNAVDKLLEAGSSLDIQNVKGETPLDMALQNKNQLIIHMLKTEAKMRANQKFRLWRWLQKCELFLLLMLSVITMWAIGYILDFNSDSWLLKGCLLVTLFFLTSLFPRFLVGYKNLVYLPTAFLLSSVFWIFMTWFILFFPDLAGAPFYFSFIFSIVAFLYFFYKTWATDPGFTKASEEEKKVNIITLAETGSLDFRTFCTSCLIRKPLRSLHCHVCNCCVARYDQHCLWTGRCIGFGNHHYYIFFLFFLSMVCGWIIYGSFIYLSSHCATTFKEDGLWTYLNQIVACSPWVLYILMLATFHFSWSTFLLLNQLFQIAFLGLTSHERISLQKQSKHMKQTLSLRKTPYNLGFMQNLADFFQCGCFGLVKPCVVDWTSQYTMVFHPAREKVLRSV

[2] = molecular target: HIP14-GFP (Huntingtin Interacting Protein 14, GFP tagged) (human (from the printed RefSeq entries)) (UniProt Q8IUH5); test: as above
UniProt Q8IUH5, sequence (Q8IUH5 whole entry): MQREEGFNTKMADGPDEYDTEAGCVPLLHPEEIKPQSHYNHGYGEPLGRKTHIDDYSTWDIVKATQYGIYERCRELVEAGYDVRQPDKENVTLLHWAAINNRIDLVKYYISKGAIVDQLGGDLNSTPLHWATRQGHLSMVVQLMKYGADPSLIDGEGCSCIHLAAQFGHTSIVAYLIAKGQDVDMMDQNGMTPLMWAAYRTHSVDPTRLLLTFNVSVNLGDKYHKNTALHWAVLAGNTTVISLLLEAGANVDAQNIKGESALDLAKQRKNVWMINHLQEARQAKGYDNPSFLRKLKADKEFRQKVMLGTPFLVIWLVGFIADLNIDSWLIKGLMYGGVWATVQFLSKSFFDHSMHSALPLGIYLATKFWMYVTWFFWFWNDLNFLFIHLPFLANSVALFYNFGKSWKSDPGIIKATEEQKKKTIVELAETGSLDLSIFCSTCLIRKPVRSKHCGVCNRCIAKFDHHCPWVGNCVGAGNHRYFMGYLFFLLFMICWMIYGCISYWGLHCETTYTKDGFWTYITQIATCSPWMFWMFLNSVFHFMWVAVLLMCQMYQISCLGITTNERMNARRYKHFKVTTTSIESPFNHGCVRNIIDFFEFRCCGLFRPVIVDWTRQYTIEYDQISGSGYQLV

percent decrease of interaction against 15Q HTT 1–548 [1]: 54% | percent less co-immunoprecipitated than 15Q HTT 1–548 [2]: 57%
Substance: 128Q HTT 1–548 (domain or fragment)
